This note sets out measurements from paper PMC12138080 (Acta Pharmaceutica Sinica. B, 2025).

For orientation: Kd means the concentration at which binding is half-saturated. Low values mean higher affinity, high ones lower affinity.

The assay concerns the target T1, Human GRK2 protein (His Tag) (human, UniProt P25098 1-689).
T1 sequence: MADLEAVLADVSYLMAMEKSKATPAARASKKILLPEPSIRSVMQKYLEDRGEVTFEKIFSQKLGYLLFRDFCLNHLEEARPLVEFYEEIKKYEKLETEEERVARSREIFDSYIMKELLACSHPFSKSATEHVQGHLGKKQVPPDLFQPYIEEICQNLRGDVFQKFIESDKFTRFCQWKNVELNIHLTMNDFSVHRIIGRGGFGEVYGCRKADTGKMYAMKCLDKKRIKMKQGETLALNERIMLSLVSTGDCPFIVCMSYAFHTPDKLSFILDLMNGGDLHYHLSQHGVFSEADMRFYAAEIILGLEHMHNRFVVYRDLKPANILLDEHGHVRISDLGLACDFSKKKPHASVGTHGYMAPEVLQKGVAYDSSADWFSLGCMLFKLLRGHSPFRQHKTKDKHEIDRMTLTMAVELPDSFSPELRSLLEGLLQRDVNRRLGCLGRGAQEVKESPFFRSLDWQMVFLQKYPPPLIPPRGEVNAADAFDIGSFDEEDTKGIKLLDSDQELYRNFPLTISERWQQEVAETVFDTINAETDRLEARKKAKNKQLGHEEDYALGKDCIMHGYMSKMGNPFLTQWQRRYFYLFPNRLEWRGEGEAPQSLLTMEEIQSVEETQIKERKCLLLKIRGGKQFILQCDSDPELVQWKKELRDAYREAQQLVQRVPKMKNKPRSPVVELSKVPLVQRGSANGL
The assay can be described thus: SPR. In general terms: SPR reads the build-up and loss of mass on a sensor chip optically.

B1: Human TRAF2 protein (His Tag) (natural protein)
chain: MAAASVTPPGSLELLQPGFSKTLLGTKLEAKYLCSACRNVLRRPFQAQCGHRYCSFCLASILSSGPQNCAACVHEGIYEEGISILESSSAFPDNAARREVESLPAVCPSDGCTWKGTLKEYESCHEGRCPLMLTECPACKGLVRLGEKERHLEHECPERSLSCRHCRAPCCGADVKAHHEVCPKFPLTCDGCGKKKIPREKFQDHVKTCGKCRVPCRFHAIGCLETVEGEKQQEHEVQWLREHLAMLLSSVLEAKPLLGDQSHAGSELLQRCESLEKKTATFENIVCVLNREVERVAMTAEACSRQHRLDQDKIEALSSKVQQLERSIGLKDLAMADLEQKVLEMEASTYDGVFIWKISDFARKRQEAVAGRIPAIFSPAFYTSRYGYKMCLRIYLNGDGTGRGTHLSLFFVVMKGPNDALLRWPFNQKVTLMLLDQNNREHVIDAFRPDVTSSSFQRPVNDMNIASGCPLFCPVSKMEAKNSYVRDDAIFIKAIVDLTGL
B1 registered a Kd of 31.2 nM.
